# Test results taken from the MegaScale stability set (Tsuboyama et al. 2023).
# B1: HEEH_KT_rd6_0007 (parent)
# chain: SIEEEIKKAEEAKEKGKTFIHGDFVATTEELLDELLKRLRKKL
# Variants of: B1
# Assay: folding stability dG (cDNA display proteolysis); higher = more stable
# Conditions: PBS, room temperature
row,Variant,folding stability dG [kcal/mol]
1,E14A,1.73
2,E10N,0.992
3,E10W,1.06
4,E10I,1.32
5,R40W,1.23
6,R40Q,0.495
7,R40T,0.465
8,R40Y,1.69
9,R40I,0.776
10,R38D,0.493
11,R38L,1.94
12,R38H,1.6
13,R38I,1.73
14,R38S,0.842
15,R38Q,1.23
16,V25S,0.912
17,V25E,1.05
18,V25H,1.28
19,V25T,0.907
20,D33W,1.44
21,D33C,1.98
22,D33V,1.17
23,D33E,1.34
24,D33Y,1.28

row,Variant,folding stability dG [kcal/mol]
1,K7F,0.95
2,K7N,0.942
3,F19D,0.713
4,F19L,0.751
5,I6M,0.782
6,I6P,0.487
7,I6Q,0.793
8,E5Y,1.56
9,E5M,2.05
10,I20T,1.25
11,I20F,0.891
12,I20R,0.918
13,I20E,0.927
14,K13A,0.86
15,K13F,0.912
16,K13H,0.747
17,K13N,0.575
18,K8W,1.02
19,K8H,0.921
20,K8P,0.542
21,K8R,1.42
22,I2Q,0.766
23,I2Y,0.989
24,I2S,0.818

row,Variant,folding stability dG [kcal/mol]
1,A9D,0.579
2,A9F,0.698
3,A9G,0.708
4,E29C,2.15
5,E29V,1.65
6,E29F,1.47
7,E29N,1.26
8,E29H,1.2
9,T27I,1.11
10,K41E,1.19
11,K42Q,1.42
12,F24I,1.03
13,F24A,0.492
14,F24P,0.489
15,G22D,0.958
16,G22Y,1.23
17,G22W,1.53
18,G22F,1.14
19,G22M,1.15
20,G22R,0.665
21,A26Q,0.685
22,A26K,0.515
23,A26G,0.7
24,A26W,1.24

row,Variant,folding stability dG [kcal/mol]
1,A26T,0.686
2,A12Y,0.791
3,A12K,0.526
4,A12I,0.771
5,E3V,1.24
6,E3I,1.36
7,E3Q,1.22
8,E3F,1.23
9,E3M,1.45
10,D23L,1.31
11,D23I,1.52
12,D23S,1.36
13,E11G,0.705
14,E11A,1.16
15,E11W,1.2
16,L39F,0.806
17,L39M,0.977
18,L39I,0.845
19,L39P,-0.251
20,L39E,-0.449
21,T18M,1.32
22,T18K,1.1
23,T18H,1.16
24,T18I,1.67

row,Variant,folding stability dG [kcal/mol]
1,T18L,1.07
2,T18F,1.3
3,L43P,0.431
4,H21A,0.946
5,H21V,1.04
6,H21M,1.08
7,E4K,1
8,E4S,1.12
9,E4L,1.21
10,E4Q,1.11
11,E4A,1.25
12,L32Q,0.13
13,L32Y,1.22
14,L32I,1.46
15,L32W,0.894
16,L36M,0.68
17,L36S,0.185
18,L36R,0.531
19,L36H,0.249
20,L36G,0.032
21,L36A,0.394
22,G16A,0.667
23,G16H,1.25
24,G16S,0.957

row,Variant,folding stability dG [kcal/mol]
1,G16T,0.757
2,G16F,1.2
3,G16N,1.08
4,T28S,1.15
5,T28I,1.31
6,T28P,0.562
7,T28K,0.472
8,T28A,0.936
9,T28Y,0.985
10,T28R,0.557
11,K37Y,0.938
12,K37D,0.975
13,K37L,1.51
14,K37R,1.68
15,K37E,1.25
16,K37P,-0.465
17,L35V,0.702
18,L35P,-0.141
19,L35W,0.882
20,K17H,1.44
21,K17M,1.66
22,K17T,1.43
23,K17C,2.53
24,E34M,1.3

row,Variant,folding stability dG [kcal/mol]
1,E34I,1.36
2,E34V,0.952
3,E34L,1.4
4,E34G,0.737
5,E34N,0.881
6,E34S,0.84
7,S1G,1.11
8,S1Q,1.07
9,S1E,1.11
10,S1N,1.19
11,S1Y,1.36
12,L31F,0.877
13,L31S,0.841
14,L31A,1.28
15,E30W,1.42
16,E30D,1.17
17,K15L,1.4
18,K15D,0.807
19,K15W,1.07
20,K15F,1.15
21,K15P,0.667
22,K15Y,1.13
23,K15Q,1.4
